Test results taken from publication PMC6261651, “A functional proteomics platform to reveal the sequence determinants of lysine methyltransferase substrate selectivity” (Science Advances, 2018).
Positions count from the first letter of the chain named. Names and notes keep the numbering of the source. “Also recorded” adds a separate entry of the source.

How the values were obtained:
SMYD2 [1] = biological target: T1, SMYD2 (Homo sapiens, UniProt Q9NRG4); assay: SPA kinetic analysis of SMYD2 methylation of peptide substrates; assay type: biochemical; settings: 200 nM SMYD2, 50 μM SAM, varied substrate concentration, mean of three independent measurements (Fig. 4D)
T1 construct: SMYD2 (full length) was expressed as a N-terminal glutathione S-transferase (GST) fusion; GST (N); made in house; host or cells: Escherichia coli BL21(DE3)
T1 sequence (Q9NRG4 whole entry, the tested form may be a part): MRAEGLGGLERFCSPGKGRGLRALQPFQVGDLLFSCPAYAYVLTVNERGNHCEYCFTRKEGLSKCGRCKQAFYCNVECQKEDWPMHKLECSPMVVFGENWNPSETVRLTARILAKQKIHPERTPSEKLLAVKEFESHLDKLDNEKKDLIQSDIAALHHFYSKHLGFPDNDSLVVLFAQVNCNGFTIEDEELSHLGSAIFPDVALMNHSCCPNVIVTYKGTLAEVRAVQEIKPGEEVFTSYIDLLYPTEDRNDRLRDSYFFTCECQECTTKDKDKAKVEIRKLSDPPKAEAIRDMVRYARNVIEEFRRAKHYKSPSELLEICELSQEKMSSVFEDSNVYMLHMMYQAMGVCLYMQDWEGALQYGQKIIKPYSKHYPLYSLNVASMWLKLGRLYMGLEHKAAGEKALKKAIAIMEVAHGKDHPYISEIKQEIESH
Method: Reactions (10 μl) containing 1 μg of KMT, 1 μg of a K-OPL set, and 1 μCi of ^3H-SAM (PerkinElmer) in KMT reaction buffer [50 mM tris (pH 8.8), 5 mM MgCl2, and 4 mM dithiothreitol] were incubated for 1 hour at room temperature. Reactions were stopped by adding trifluoracetic acid to a final concentration of 0.5%, neutralized by diluting with 135 μl of 50 mM NaHCO3, and transferred to streptavidin-coated FlashPlates (PerkinElmer). Plates were incubated for 15 min, sealed, and counted in a MicroBeta2 liquid scintillation counter (PerkinElmer) for 1 min per sample. Initial rate measure and kinetic analysis were performed using the same procedure with 200 nM SMYD2, 50 μM SAM (5:1 cold/hot ratio), and 80 μM substrate (initial rate measurements) or as indicated (kinetic analysis). IC50 measurements were performed using the same conditions with 5 μM PER2 peptide as a substrate.

SMYD2 [2] = biological target: T1, SMYD2; assay: In vitro SMYD2 methyltransferase assay with protein substrates (SDS-PAGE, 3H fluorography); assay type: biochemical; settings: 1 μg of KMT, 1 μg of substrate, 1 μCi 3H-SAM, 1 hour, room temperature; 3H fluorography (Fig. 5A, 5B, fig. S5A)
Method: Reactions (10 μl) containing 1 μg of KMT, 1 μg of the indicated substrates, and 1 μCi of ^3H-SAM (PerkinElmer) in KMT reaction buffer were incubated for 1 hour at room temperature. Reactions were quenched by the addition of SDS loading buffer and resolved by SDS–polyacrylamide gel electrophoresis. Following the detection of total protein by Coomassie staining, gels were treated with EN^3HANCE (PerkinElmer) and dried, and methylated proteins were detected by autoradiography.
Fig. S5. In vitro SMYD2 assays with protein substrates. (A) Coomassie stained SDS-PAGE of recombinant control (HIS-GST), known substrates (p53, MAPKAPK3), and predicted substrates (PRDM11, GDAP1, MAP3K12) in the absence and presence of SMYD2. Reactions were carried out with 1 μg of SMYD2, 1 μg of substrate, and 1 μCi of 3H-SAM. 3H fluorograph shown below after 24 hour exposure at -80 °C (B) Cartoon repre- sentation of ZPK (PDB:
5CEN) showing plus and minus three amino acids from the target lysine (PO) as stick models.
(1 picture or pasted object on this page, not shown here)

B1: PER2: recombinant PER2 (amino acids 691 to 900), N-terminal MBP-His fusion (protein, UniProt O15055 691-900, looked up, fragment)
chain: VEDAASGPESLDCLAGPALACGLSQEKEPFKKLGLTKEVLAAHTQKEEQSFLQKFKEIRKLSIFQSHCHYYLQERSKGQPSERTAPGLRNTSGIDSPWKKTGKNRKLKSKRVKPRDSSESTGSGGPVSARPPLVGLNATAWSPSDTSQSSCPAVPFPAPVPAAYSLPVFPAPGTVAAPPAPPHASFTVPAVPVDLQHQFAVQPPPFPAPL
modifications: N-terminal MBP-His fusion
notes: recombinant PER2 (amino acids 691 to 900), N-terminal MBP-His fusion
kinetic model of SMYD2 methylation (SMYD2 [1]): consistent with substrate inhibition | methylation of recombinant protein substrate by SMYD2 (SMYD2 [2]): methylated by SMYD2; also recorded: at least as efficiently as the known substrate, p53

B2: CDC5L: recombinant CDC5L (amino acids 150 to 280), N-terminal GST fusion (protein, UniProt Q99459 150-280, looked up, fragment)
chain: EMLSEARARLANTQGKKAKRKAREKQLEEARRLAALQKRRELRAAGIEIQKKRKRKRGVDYNAEIPFEKKPALGFYDTSEENYQALDADFRKLRQQDLDGELRSEKEGRDRKKDKQHLKRKKESDLPSAIL
modifications: N-terminal GST fusion
notes: recombinant CDC5L (amino acids 150 to 280), N-terminal GST fusion
methylation of recombinant protein substrate by SMYD2 (SMYD2 [2]): methylated by SMYD2; also recorded: at least as efficiently as the known substrate, p53

B3: GDAP1: recombinant GDAP1 (full length), Abcam (protein, UniProt Q8TB36 1-358, looked up)
chain: MAERQEEQRGSPPLRAEGKADAEVKLILYHWTHSFSSQKVRLVIAEKALKCEEHDVSLPLSEHNEPWFMRLNSTGEVPVLIHGENIICEATQIIDYLEQTFLDERTPRLMPDKESMYYPRVQHYRELLDSLPMDAYTHGCILHPELTVDSMIPAYATTRIRSQIGNTESELKKLAEENPDLQEAYIAKQKRLKSKLLDHDNVKYLKKILDELEKVLDQVETELQRRNEETPEEGQQPWLCGESFTLADVSLAVTLHRLKFLGFARRNWGNGKRPNLETYYERVLKRKTFNKVLGHVNNILISAVLPTAFRVAKKRAPKVLGTTLVVGLLAGVGYFAFMLFRKRLGSMILAFRPRPNYF
modifications: full-length
notes: recombinant GDAP1 (full length), Abcam
methylation of recombinant protein substrate by SMYD2 (SMYD2 [2]): methylated by SMYD2; also recorded: poor SMYD2 substrates

B4: ZPK: recombinant protein, predicted SMYD2 substrate (protein, UniProt Q12852 1-859, looked up)
Mitogen-activated protein …: MACLHETRTPSPSFGGFVSTLSEASMRKLDPDTSDCTPEKDLTPTHVLQLHEQDAGGPGGAAGSPESRASRVRADEVRLQCQSGSGFLEGLFGCLRPVWTMIGKAYSTEHKQQQEDLWEVPFEEILDLQWVGSGAQGAVFLGRFHGEEVAVKKVRDLKETDIKHLRKLKHPNIITFKGVCTQAPCYCILMEFCAQGQLYEVLRAGRPVTPSLLVDWSMGIAGGMNYLHLHKIIHRDLKSPNMLITYDDVVKISDFGTSKELSDKSTKMSFAGTVAWMAPEVIRNEPVSEKVDIWSFGVVLWELLTGEIPYKDVDSSAIIWGVGSNSLHLPVPSSCPDGFKILLRQCWNSKPRNRPSFRQILLHLDIASADVLSTPQETYFKSQAEWREEVKLHFEKIKSEGTCLHRLEEELVMRRREELRHALDIREHYERKLERANNLYMELNALMLQLELKERELLRREQALERRCPGLLKPHPSRGLLHGNTMEKLIKKRNVPQKLSPHSKRPDILKTESLLPKLDAALSGVGLPGCPKGPPSPGRSRRGKTRHRKASAKGSCGDLPGLRTAVPPHEPGGPGSPGGLGGGPSAWEACPPALRGLHHDLLLRKMSSSSPDLLSAALGSRGRGATGGAGDPGSPPPARGDTPPSEGSAPGSTSPDSPGGAKGEPPPPVGPGEGVGLLGTGREGTSGRGGSRAGSQHLTPAALLYRAAVTRSQKRGISSEEEEGEVDSEVELTSSQRWPQSLNMRQSLSTFSSENPSDGEEGTASEPSPSGTPEVGSTNTDERPDERSDDMCSQGSEIPLDPPPSEVIPGPEPSSLPIPHQELLRERGPPNSEDSDCDSTELDNSNSVDALRPPASLPP
methylation of recombinant protein substrate by SMYD2 (SMYD2 [2]): methylated by SMYD2; also recorded: poor SMYD2 substrates

B5: ATP6V1G3: recombinant ATP6V1G3 (full length), N-terminal GST fusion (protein, UniProt Q96LB4 1-118, looked up)
chain: MTSQSQGIHQLLQAEKRAKDKLEEAKKRKGKRLKQAKEEAMVEIDQYRMQRDKEFRLKQSKIMGSQNNLSDEIEEQTLGKIQELNGHYNKYMESVMNQLLSMVCDMKPEIHVNYRATN
modifications: full-length N-terminal GST fusion
methylation of recombinant protein substrate by SMYD2 (SMYD2 [2]): methylated by SMYD2; also recorded: at least as efficiently as the known substrate, p53

B6: MAPKAPK3: full-length recombinant MAPKAPK3, known SMYD2 substrate (protein, UniProt Q16644 1-382, looked up)
chain: MDGETAEEQGGPVPPPVAPGGPGLGGAPGGRREPKKYAVTDDYQLSKQVLGLGVNGKVLECFHRRTGQKCALKLLYDSPKARQEVDHHWQASGGPHIVCILDVYENMHHGKRCLLIIMECMEGGELFSRIQERGDQAFTEREAAEIMRDIGTAIQFLHSHNIAHRDVKPENLLYTSKEKDAVLKLTDFGFAKETTQNALQTPCYTPYYVAPEVLGPEKYDKSCDMWSLGVIMYILLCGFPPFYSNTGQAISPGMKRRIRLGQYGFPNPEWSEVSEDAKQLIRLLLKTDPTERLTITQFMNHPWINQSMVVPQTPLHTARVLQEDKDHWDEVKEEMTSALATMRVDYDQVKIKDLKTSNNRLLNKRRKKQAGSSSASQGCNNQ
modifications: full-length
notes: full-length recombinant MAPKAPK3, known SMYD2 substrate
methylation of recombinant protein substrate by SMYD2 (SMYD2 [2]): weaker than most of the newly identified SMYD2 substrates

B7: MAPKAPK3 (D353R and T356S): MAPKAPK3 with mutations predicted to enhance methylation (protein, UniProt Q16644 1-382, looked up, variant D353R T356S)
MAP kinase-activated protein …: B6 chain with D353R, T356S
methylation of recombinant protein substrate by SMYD2 (SMYD2 [2]): improved methylation of this protein
